This series deals with the molecule itself. Briefly: SDS-PAGE (silver stain) and anti-FLAG western blot of immunoaffinity-purified protein, with and without reduction.

B1: FLAG-BRP fusion protein (N-terminal FLAG tag on predicted mature human BRP, secreted through the mouse preprotrypsin signal) (other)
chain: DYKDDDDKASSGNLRTFVGCAVREFTFLAKKPGCRGLRITTDACWGRCETWEKPILEPPYIEAHHRVCTYNETKQVTVKLPNCAPGVDPFYTYPVAIRCDCGACSTATTECETI
notes: The BRP part comes from BRP-NTAP (BRP without the secretory signal peptide); also called FLAG-BRP in pCEP4
Turning to B1, the binding result was “binds”.

The values above are taken from patent US20040005554A1 (APPLIED RESEARCH SYSTEMS ARS HOLDING N V, published 2004).
